This note sets out measurements from paper PMC8580825, “Scaffolding protein CcmM directs multiprotein phase separation in β-carboxysome biogenesis” (Nature Structural & Molecular Biology, 2021).

A word on the stoichiometry N: it is the number of molecules, sites or subunits per partner or assembly.

Assay [1] has as its target CcmM full-length protein M58 of Synechococcus elongatus PCC 7942 (Synechococcus elongatus PCC 7942) (UniProt Q03513). Nature of the assay: SEC-MALS; 2 mg/ml protein; 50 mM Tris-HCl pH 8.0/150 mM KCl or 50 mM Tris-HCl pH 8.0/500 mM KCl/5 mM DTT; 25 °C; oligomeric state in solution. Background: In gel filtration, larger molecules generally elute earlier.
The target of assay [2] is T1, RbcL8 core complex of Rubisco (Synechococcus elongatus PCC 7942).
T1 chain: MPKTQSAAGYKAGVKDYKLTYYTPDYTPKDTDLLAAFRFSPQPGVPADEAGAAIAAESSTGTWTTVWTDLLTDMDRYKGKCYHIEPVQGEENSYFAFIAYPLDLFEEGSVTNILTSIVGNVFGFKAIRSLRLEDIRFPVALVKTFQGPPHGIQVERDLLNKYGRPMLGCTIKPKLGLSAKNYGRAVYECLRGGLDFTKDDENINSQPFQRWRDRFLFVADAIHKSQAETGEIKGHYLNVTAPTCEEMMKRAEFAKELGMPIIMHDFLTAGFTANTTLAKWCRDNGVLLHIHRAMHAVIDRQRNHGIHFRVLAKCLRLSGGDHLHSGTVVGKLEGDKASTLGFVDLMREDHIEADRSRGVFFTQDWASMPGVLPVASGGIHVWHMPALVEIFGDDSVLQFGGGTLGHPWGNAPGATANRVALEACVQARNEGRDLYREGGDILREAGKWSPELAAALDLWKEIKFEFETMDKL
Put plainly: turbidity assay; 0.25 μM RbcL8 with M58red or M58ox at varied concentrations; M35red or M35ox with RbcL8 as controls; 50–200 mM KCl. The settings on record: both partners purified.

B1: CcmM full-length protein M58 of Synechococcus elongatus PCC 7942 (natural protein, UniProt Q03513 1-539, looked up)
chain: MPSPTTVPVATAGRLAEPYIDPAAQVHAIASIIGDVRIAAGVRVAAGVSIRADEGAPFQVGKESILQEGAVIHGLEYGRVLGDDQADYSVWIGQRVAITHKALIHGPAYLGDDCFVGFRSTVFNARVGAGSVIMMHALVQDVEIPPGRYVPSGAIITTQQQADRLPEVRPEDREFARHIIGSPPVIVRSTPAATADFHSTPTPSPLRPSSSEATTVSAYNGQGRLSSEVITQVRSLLNQGYRIGTEHADKRRFRTSSWQPCAPIQSTNERQVLSELENCLSEHEGEYVRLLGIDTNTRSRVFEALIQRPDGSVPESLGSQPVAVASGGGRQSSYASVSGNLSAEVVNKVRNLLAQGYRIGTEHADKRRFRTSSWQSCAPIQSSNERQVLAELENCLSEHEGEYVRLLGIDTASRSRVFEALIQDPQGPVGSAKAAAAPVSSATPSSHSYTSNGSSSSDVAGQVRGLLAQGYRISAEVADKRRFQTSSWQSLPALSGQSEATVLPALESILQEHKGKYVRLIGIDPAARRRVAELLIQKP
notes: CcmM (M58, ~58 kDa), Synechococcus elongatus PCC 7942; full-length ccmM gene amplified from genomic DNA; SeCcmM (1-539); Used reduced (M58red, 5 mM DTT) or oxidized (M58ox, 2 mM H2O2; disulfides in SSUL modules); For microscopy labelled at the N terminus with Alexa532 and mixed 1:10 with unlabelled protein; also called SeM58; M58red; source: E. coli BL21 (DE3), purified (Ni-NTA, H6Ub cleaved with …)
For the molecule B1, the stoichiometry N in assay [1] came out at 3. In addition, the “fold lower affinity than for the Rubisco holoenzyme” value in assay [2] was approximately 4 fold.
